US20180339041A1 (Kyowa Kirin, published 2018)

How the values were obtained:
[1] = target: T1, C-terminally FLAG-tagged human Gas6 recombinant protein (hGas6-F) (human, UniProt Q14393 31-678, gamma-carboxylated glutamic acid residues in the Gla domain (producer cells co-express rat VKOR and human GGCX); positions not given); experiment: cell-based or functional assay
T1 sequence: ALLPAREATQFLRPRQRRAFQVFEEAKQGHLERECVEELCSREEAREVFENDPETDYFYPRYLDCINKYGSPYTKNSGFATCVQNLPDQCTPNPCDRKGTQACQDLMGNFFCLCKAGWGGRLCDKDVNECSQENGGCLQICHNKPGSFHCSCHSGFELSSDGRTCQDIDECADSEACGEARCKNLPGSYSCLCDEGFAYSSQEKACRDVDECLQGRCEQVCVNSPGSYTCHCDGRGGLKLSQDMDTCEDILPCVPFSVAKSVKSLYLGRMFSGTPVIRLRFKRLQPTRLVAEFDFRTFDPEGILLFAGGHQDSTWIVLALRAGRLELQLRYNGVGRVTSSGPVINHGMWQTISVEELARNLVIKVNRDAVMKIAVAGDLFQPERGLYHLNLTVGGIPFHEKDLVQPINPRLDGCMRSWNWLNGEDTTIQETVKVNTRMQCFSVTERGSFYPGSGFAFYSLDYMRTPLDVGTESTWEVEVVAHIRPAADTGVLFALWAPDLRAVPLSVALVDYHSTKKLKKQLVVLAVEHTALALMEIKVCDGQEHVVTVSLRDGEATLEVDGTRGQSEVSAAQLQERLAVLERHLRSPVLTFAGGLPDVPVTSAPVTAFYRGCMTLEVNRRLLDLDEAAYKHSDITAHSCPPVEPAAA

[2] = target: T2, C-terminally FLAG-tagged cynomolgus monkey Gas6 recombinant protein (cGas6-F) (cynomolgus monkey, UniProt Q14393 31-678 (human entry), gamma-carboxylated glutamic acid residues in the Gla domain (producer cells co-express rat VKOR and human GGCX); positions not given); experiment: ELISA: cGas6-F (1 µg/mL) captured on coated anti-FLAG M2 antibody; biotinylated test antibody; streptavidin-HRP/TMB; absorbance 450-570 nm, N=2 (Example 6) [B]
T2 construct: also called cynomolgus monkey Gas6-F; monkey Gas6-F
T2 chain: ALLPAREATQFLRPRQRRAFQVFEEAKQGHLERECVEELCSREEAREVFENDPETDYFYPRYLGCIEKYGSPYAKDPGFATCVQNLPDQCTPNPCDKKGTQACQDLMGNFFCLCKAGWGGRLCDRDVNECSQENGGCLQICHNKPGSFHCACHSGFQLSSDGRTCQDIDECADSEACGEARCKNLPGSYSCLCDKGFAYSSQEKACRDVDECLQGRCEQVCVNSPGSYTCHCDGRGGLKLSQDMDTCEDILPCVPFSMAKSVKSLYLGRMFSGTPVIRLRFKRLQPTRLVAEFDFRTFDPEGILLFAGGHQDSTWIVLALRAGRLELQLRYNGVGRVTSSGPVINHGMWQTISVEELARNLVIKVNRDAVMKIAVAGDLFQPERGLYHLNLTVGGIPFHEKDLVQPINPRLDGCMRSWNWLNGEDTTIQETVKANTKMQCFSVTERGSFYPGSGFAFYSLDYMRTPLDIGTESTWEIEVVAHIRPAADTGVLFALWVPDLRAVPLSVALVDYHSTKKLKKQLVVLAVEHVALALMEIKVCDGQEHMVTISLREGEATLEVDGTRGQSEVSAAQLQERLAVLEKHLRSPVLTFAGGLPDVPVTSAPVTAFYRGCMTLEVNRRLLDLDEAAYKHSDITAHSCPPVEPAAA
Protocol: First, 2 μg/mL anti-FLAG antibody [Monoclonal ANTI-FLAG M2 antibody produced in mouse (manufactured by Sigma-Aldrich Co. LLC) diluted with PBS (manufactured by Nacalai Tesque, Inc.)] was dispensed at 50 μL/well to a 96-well plate for ELISA (manufactured by Nalge Nunc International), and the plate was left standing overnight at 4° C. for adsorption. After removal of the immobilization solution, 1% BSA-PBS (manufactured by Nacalai Tesque, Inc.) was added thereto at 300 μL/well, and the plate was left standing at room temperature for 1 hour for blocking and washed five times with Tween 20-PBS (manufactured by Wako Pure Chemical Industries Ltd.).
Each antibody solution was dispensed thereto at 50 μL/well, and the plate was left standing at room temperature for 1 hour. This plate was washed five times with Tween 20-PBS. Then, Streptavidin HRP Conjugate (manufactured by R&D Systems, Inc.) diluted 200-fold with 1% BSA-PBS was dispensed thereto at 50 μL/well, and the plate was left standing at room temperature for 1 hour. This plate was washed five times with Tween 20-PBS, and TMB (manufactured by Sigma-Aldrich Co. LLC) was added thereto at 50 μL/well and reacted. […] The absorbance at a sample wavelength of 450 nm and a reference wavelength of 570 nm (450 nm-570 nm) was measured using a plate reader.

Binder | antibody:Gas6 molar concentration ratio at complete inhibition of reporter activation [1] | EC50 (read off the curve) [2] [ng/mL]
anti-human Gas6 mouse monoclonal antibody KM5321 (KM5321-mKG1 antibody) (antibody, V domains shown, Hybridoma-derived mouse IgG1, kappa; also called KM5321 antibody) VH: QIQLVQSGPELKKPGETVKISCRASGYTFTNYGMNWVKQAPGKGLKWMGWINTNTGEPTYTEEFKGRFAFSLETSATTAYLQINDLKNEDTATYFCARDEGWFVYWGQGTLITVSA VL: ETTVTQSPASLSVATGEKVTIRCITSTDIDDDMNWYQQKPGEPPKLLISEGNTLRPGVPSRFSSSGYGTDFVFTIENTLSEDVADYYCLQTDSVPLTFGAGTKLELK | 2 antibody:Gas6 molar ratio | ~4
anti-human Gas6 mouse monoclonal antibody KM5320 (KM5320-mKG1 antibody) (antibody, V domains shown, Hybridoma-derived mouse IgG1, kappa; also called KM5320 antibody) VH: QIQLVQSGPELKKPGETVKISCKASGYTFTNYGMNWVKQAPGKGLKWMGWINTETGEPTYSDDFKGRFAFSLETSATTAYLQINNLRNEDMATYFCAREDGYYGTLDYWGQGTSVTVSS VL: SIVMTQTPKFLLVSAGDRVTITCKASQSVSNDVAWYQQKPGQSPKVLIYYASNRYTGVPDRFTGSGYGTDFTFTISTVQAEDLAVYFCQQDYSSPWTFGGGTKLEIK | 2 antibody:Gas6 molar ratio | ~4
